This note sets out measurements from patent US20130236473A1, “THERAPEUTIC AGENTS AND PROPHYLACTIC AGENTS FOR SYMPTOMS ACCOMPANYING AUTOIMMUNE DISEASES, INFLAMMATORY DISEASES, ALLERGY DISEASES AND ORGAN TRANSPLANTS” (OSAKA UNIVERSITY, priority 2010, published 2013).

The subject of the assay is IL-6 amplifier. Kind of assay: Reference Example 3: effect of growth factors on mIL-6 protein production in BC-1 cells (ELISA). The assay is classed as cell-based, mouse. The conditions noted are these: 24 hours, hIL-6/6R and mIL-17A each 50 ng/ml, growth factor added, versus none added. Here is the method:
2×10^5 mouse BC-1 cells were cultured for 24 hours in an RPMI 1640 medium containing hIL-6/6R proteins each at 50 ng/ml and mIL-17A protein at 50 ng/ml under the condition in which 100 ng/ml of mouse EGF protein (R&D Systems, Inc.), 100 ng/ml of human HB-EGF protein (R&D Systems, Inc.), 0.1, 1, 10, or 100 ng/ml of mouse epiregulin protein (R&D Systems, Inc.), 50 ng/ml of mouse VEGF protein (R&D Systems, Inc.), 50 ng/ml of mouse FGF7 protein (R&D Systems, Inc.), or 300 ng/ml of mPDGF-CC protein (R&D Systems, Inc.) was separately added. Mouse BC-1 cells cultured under the condition in which only hIL-6/6R proteins and mIL-17A protein were added served as a control group.
After the culture, the production amount of mIL-6 protein under each condition was quantified by an ELISA method in the same manner as in Reference Example 1. FIGS. 5 and 6 show the results.

B1: FGF7 protein: mouse FGF7 protein (R&D Systems, Inc.), not a ligand of ErbB1 protein (protein, UniProt P36363 32-194, looked up)
Fibroblast growth factor 7: CNDMSPEQTATSVNCSSPERHTRSYDYMEGGDIRVRRLFCRTQWYLRIDKRGKVKGTQEMKNSYNIMEIRTVAVGIVAIKGVESEYYLAMNKEGKLYAKKECNEDCNFKELILENHYNTYASAKWTHSGGEMFVALNQKGIPVKGKKTKKEQKTAHFLPMAIT
Turning to B1, the “production amount of mIL-6 protein” value is given as “no significant difference”.

B2: HB-EGF protein: human HB-EGF protein (R&D Systems, Inc.), ligand of ErbB1 protein (protein)
chain: DLQEADLDLLRVTLSSKPQALATPNKEEHGKRKKKGKGLGKKRDPCLRKYKDFCIHGECKYVKELRAPSCICHPGYHGERCHGLSL
With B2, the “production amount of mIL-6 protein” value is reported as “significantly (p value <0.01) increased”.
